2 molecules from patent US20170267972A1 (published 2017) can be followed below.

The target in test [1] is T1, WT1 (modified form of the WT1 peptide) peptide on HLA-A*24:02 (human).
T1 peptide: CYTWNQMNL
The test can be described thus: killing.

The target in test [2] is T2, LMP2 (Epstein-Barr virus latent membrane protein 2) peptide on HLA-A*24:02 (human).
T2 peptide: IYVLVMLVL
The test is described as follows: multimer staining.

B1: TCR of clone WT1#3-3 (TCR)
alpha TRAV12-1*01 TRAJ9*01 CDR3: CVVRGGGFKTIF
beta TRBV20-1*01 TRBJ2-6*01 CDR3: CSARAGTGGANVLTF
B1: in test [1], the binding result was “recognises”.

B2: TCR of clone LMP2#1 (TCR)
alpha TRAV26-1*01 TRAJ34*01 CDR3: CIVTRFYTDKLIF
beta TRBV14*02 TRBJ2-1*01 CDR3: CASSSPGSRPYNEQFF
With B2, the binding result in test [2] is reported as “recognises”.
